Experimental data: the Immune Epitope Database (IEDB)

What was measured:
[1] = target: HLA-B*15:01; experiment: IEDB peptide-MHC binding, purified MHC/competitive/fluorescence; filed as Kd, often an IC50 or EC50 that approximates it; ≥ and ≤ were set here for values at or beyond the usual limits of such assays; details: source organism: Bacillus cereus G9241
[2] = target: HLA-B*40:01; experiment: IEDB peptide-MHC binding, purified MHC/competitive/radioactivity; filed as Kd, often an IC50 or EC50 that approximates it; ≥ and ≤ were set here for values at or beyond the usual limits of such assays
[3] = target: HLA-A*26:01; experiment: as above
[4] = target: HLA-A*01:01; experiment: as above
[5] = target: HLA-A*23:01; experiment: as above
[6] = target: HLA-A*30:02; experiment: as above
[7] = target: HLA-A*29:02; experiment: as above
[8] = target: HLA-A*24:02; experiment: as above
[9] = target: HLA-A*26:01; experiment: IEDB peptide-MHC binding, purified MHC/direct/fluorescence; filed as Kd, often an IC50 or EC50 that approximates it; ≥ and ≤ were set here for values at or beyond the usual limits of such assays
[10] = target: HLA-A*01:01; experiment: as above
[11] = target: HLA-B*08:01; experiment: as above
[12] = target: HLA-A*03:01; experiment: as above
[13] = target: HLA-A*02:01; experiment: as above
[14] = target: HLA-A*31:01; experiment: as above
[15] = target: HLA-B*58:01; experiment: as above
[16] = target: HLA-A*69:01; experiment: as above
[17] = target: HLA-A*24:03; experiment: as above
[18] = target: HLA-B*40:01; experiment: as above
[19] = target: HLA-B*44:02; experiment: as above
[20] = target: HLA-B*27:05; experiment: as above
[21] = target: HLA-A*11:01; experiment: as above
[22] = target: HLA-B*15:01; experiment: as above
[23] = target: HLA-A*32:01; experiment: IEDB peptide-MHC binding, purified MHC/competitive/radioactivity; filed as Kd, often an IC50 or EC50 that approximates it; ≥ and ≤ were set here for values at or beyond the usual limits of such assays; details: source organism: Mammarenavirus brazilense
[24] = target: HLA-A*30:01; experiment: as above; details: source organism: Mammarenavirus brazilense
[25] = target: HLA-B*07:02; experiment: IEDB peptide-MHC binding, purified MHC/direct/fluorescence; filed as Kd, often an IC50 or EC50 that approximates it; ≥ and ≤ were set here for values at or beyond the usual limits of such assays; details: source organism: Salmonella enterica
[26] = source organism: Dengue virus 1 Brazil/97-11/1997
[27] = source organism: SARS coronavirus Tor2
[28] = source organism: Lassa virus Josiah
[29] = source organism: Mammarenavirus whitewaterense
[30] = source organism: Giardia lamblia ATCC 50803
[31] = source organism: Mammarenavirus brazilense
[32] = source organism: Influenza A virus (A/egret/Hong Kong/757.3/2002(H5N1))
[33] = source organism: Salmonella enterica
[34] = source organism: Mammarenavirus juninense

RKIKAITSF was tested, and the Kd [1] was 1.88 µM.

For VEEQDANFV, the Kd [2, 26] was 0.412 µM.

Sequence VFNNYMPYVF has a Kd [3, 27] of no less than 21.6 µM, a Kd [4, 27] of no less than 20.6 µM and a Kd [5, 27] of 0.00832 µM. It also gave a Kd [6, 27] of 7.11 µM, a Kd [7, 27] of 0.00922 µM and a Kd [8, 27] of 0.0112 µM.

Work on PEDPVEIALY yielded a Kd [3, 28] of no less than 69.7 µM, a Kd [4, 28] of no less than 34.4 µM and a Kd [5, 28] of no less than 70 µM. The Kd [6, 28] was 0.961 µM, the Kd [7, 28] was 15 µM and the Kd [8, 28] was no less than 70.3 µM.

TSTGNYNYKY gave a Kd [3, 27] of 1.26 µM, a Kd [4, 27] of 0.0965 µM and a Kd [5, 27] of no less than 70 µM. It also gave a Kd [6, 27] of 0.0423 µM, a Kd [7, 27] of 0.294 µM and a Kd [8, 27] of no less than 70.3 µM.

HEWCCRSCTL gave a Kd [2, 26] of 0.00399 µM.

Work on RYYDGNIYDL yielded a Kd ([3]; source organism: Variola virus) of no less than 69.7 µM, a Kd ([4]; source organism: Variola virus) of 2.61 µM and a Kd ([5]; source organism: Variola virus) of 0.0135 µM. It also gave a Kd ([6]; source organism: Variola virus) of 0.0152 µM, a Kd ([7]; source organism: Variola virus) of no less than 61.8 µM and a Kd ([8]; source organism: Variola virus) of 0.0879 µM.

Work on LTGHMLDMY yielded a Kd [3, 27] of 10.5 µM, a Kd [4, 27] of 0.000563 µM and a Kd [5, 27] of no less than 77.8 µM. For the same sequence, the Kd [6, 27] was 0.0728 µM, the Kd [7, 27] was 0.0611 µM and the Kd [8, 27] was no less than 77.6 µM.

Sequence CSYKIGHHV has a Kd [3, 29] of no less than 64.5 µM, a Kd [4, 29] of 0.0591 µM and a Kd [5, 29] of 17.5 µM. The Kd [6, 29] was 0.0944 µM, the Kd [7, 29] was no less than 26.3 µM and the Kd [8, 29] was no less than 29.2 µM.

For PPQATAKYL, the Kd [9, 30] was no less than 20 µM, the Kd [10, 30] was no less than 20 µM and the Kd [11, 30] was no less than 20 µM. The Kd [12, 30] was no less than 20 µM, the Kd [13, 30] was no less than 20 µM and the Kd [14, 30] was no less than 20 µM. It also gave a Kd [15, 30] of no less than 20 µM, a Kd [16, 30] of no less than 20 µM and a Kd [17, 30] of 9.66 µM. For the same sequence, the Kd [18, 30] was no less than 20 µM, the Kd [19, 30] was no less than 20 µM and the Kd [20, 30] was no less than 20 µM. For the same sequence, the Kd [21, 30] was no less than 20 µM and the Kd [22, 30] was no less than 20 µM.

KEFAAGRKSL showed a Kd ([2]; source organism: Dengue virus 2 Jamaica/1409/1983) of 0.00963 µM.

LSEMLNKEY showed a Kd [3, 31] of no less than 77.9 µM, a Kd [4, 31] of 0.00525 µM and a Kd [23] of no less than 77.8 µM. For the same sequence, the Kd [24] was 9.77 µM, the Kd [6, 31] was 14.7 µM and the Kd [7, 31] was 5.72 µM.

IGAGICASY was tested, and the Kd [3, 27] was 6.65 µM, the Kd [4, 27] was no less than 47.8 µM and the Kd [5, 27] was no less than 77.8 µM. It also gave a Kd [6, 27] of 0.00118 µM, a Kd [7, 27] of 0.0199 µM and a Kd [8, 27] of no less than 60 µM.

HEGYEEFTM gave a Kd [18, 32] of 0.0119 µM and a Kd [19, 32] of no less than 20 µM.

With WEGGHDLTV the Kd ([2]; source organism: Dengue virus 4 Philippines/H241/1956) was 1.85 µM.

For WTDLYTSMS, the Kd [9, 33] was no less than 20 µM, the Kd ([10]; source organism: Escherichia coli) was 0.0817 µM and the Kd [11, 33] was no less than 20 µM. It also gave a Kd [12, 33] of no less than 20 µM, a Kd [13, 33] of no less than 20 µM and a Kd [14, 33] of no less than 20 µM. The Kd [15, 33] was no less than 20 µM, the Kd [16, 33] was no less than 20 µM and the Kd [17, 33] was no less than 20 µM. It also gave a Kd [18, 33] of no less than 20 µM, a Kd [19, 33] of no less than 20 µM and a Kd [20, 33] of no less than 20 µM. It also gave a Kd [21, 33] of no less than 20 µM, a Kd [25] of no less than 20 µM and a Kd [22, 33] of no less than 20 µM.

Work on SMRSVQRNTV yielded a Kd [3, 34] of no less than 69.7 µM, a Kd [4, 34] of 2.99 µM and a Kd [5, 34] of no less than 70 µM. The Kd [6, 34] was 7.86 µM, the Kd [7, 34] was no less than 71.4 µM and the Kd [8, 34] was no less than 70.3 µM.
